Article PMC4735607, “Reversal of axonal growth defects in an extraocular fibrosis model by engineering the kinesin–microtubule interface” (Nature Communications, 2016)
Positions count from the first letter of the chain named. Names and notes keep the numbering of the source.

B1: D279R KIF5B, single-headed construct HK349 (residues 1-349, SNAP tag, His6) (domain or fragment, human, UniProt P33176 1-349, looked up)
chain: MADLAECNIKVMCRFRPLNESEVNRGDKYIAKFQGEDTVVIASKPYAFDRVFQSSTSQEQVYNDCAKKIVKDVLEGYNGTIFAYGQTSSGKTHTMEGKLHDPEGMGIIPRIVQDIFNYIYSMDENLEFHIKVSYFEIYLDKIRDLLDVSKTNLSVHEDKNRVPYVKGCTERFVCSPDEVMDTIDEGKSNRHVAVTNMNEHSSRSHSIFLINVKQENTQTEQKLSGKLYLVDLAGSEKVSKTGAEGAVLDEAKNINKSLSALGNVISALAEGSTYVPYRRSKMTRILQDSLGGNCRTTIVICCSPSSYNESETKSTLLFGQRAKTIKNTVCVNVELTAEQWKKKYEKEKE
modifications: fluorescent dye BG-549 (SNAP-surface 549) on the SNAP tag
notes: kinesin-1 heavy chain KIF5B, residues 1-349, D279R in the L12 loop
B2: single-headed KIF5B construct HK349 (residues 1-349, SNAP tag, His6) (domain or fragment, human, UniProt P33176 1-349, looked up)
chain: B1 chain with R279D
modifications: fluorescent dye BG-549 (SNAP-surface 549) on the SNAP tag
notes: kinesin-1 heavy chain KIF5B, residues 1-349; monomeric construct; also called K349-SNAP-His; minimal motor
B3: two-headed KIF5B motor, human KIF5B construct HK432 (residues 1-432, SNAP tag, His6) (domain or fragment, UniProt P33176 1-432, looked up)
chain: MADLAECNIKVMCRFRPLNESEVNRGDKYIAKFQGEDTVVIASKPYAFDRVFQSSTSQEQVYNDCAKKIVKDVLEGYNGTIFAYGQTSSGKTHTMEGKLHDPEGMGIIPRIVQDIFNYIYSMDENLEFHIKVSYFEIYLDKIRDLLDVSKTNLSVHEDKNRVPYVKGCTERFVCSPDEVMDTIDEGKSNRHVAVTNMNEHSSRSHSIFLINVKQENTQTEQKLSGKLYLVDLAGSEKVSKTGAEGAVLDEAKNINKSLSALGNVISALAEGSTYVPYRDSKMTRILQDSLGGNCRTTIVICCSPSSYNESETKSTLLFGQRAKTIKNTVCVNVELTAEQWKKKYEKEKEKNKILRNTIQWLENELNRWRNGETVPIDEQFDKEKANLEAFTVDKDITLTNDKPATAIGVIGNFTDAERRKCEEEIAKLYKQL
modifications: fluorescent dye BG-549 (SNAP-surface 549) on the SNAP tag
notes: human kinesin-1 heavy chain KIF5B, residues 1-432; also called WT KIF5B
B4: D279R KIF5B, construct HK432 (residues 1-432, SNAP tag, His6) (domain or fragment, human, UniProt P33176 1-432, looked up)
chain: B3 chain with D279R
modifications: fluorescent dye BG-549 (SNAP-surface 549) on the SNAP tag
notes: human kinesin-1 heavy chain KIF5B, residues 1-432, D279R in the L12 loop; also called mutant HK432
B5: D279N KIF5B, construct HK432 (residues 1-432, SNAP tag, His6) (domain or fragment, human, UniProt P33176 1-432, looked up)
chain: B3 chain with D279N
modifications: fluorescent dye BG-549 (SNAP-surface 549) on the SNAP tag
notes: human kinesin-1 heavy chain KIF5B, residues 1-432, D279N in the L12 loop; also called mutant HK432

Experiments:
[1] = biological target: T1, microtubules of recombinant human TUBA1B/TUBB3 tubulin with TUBB3 R262A (human, UniProt P68363-1 1-451; Q13509-1 1-450, K40R | R262A); experiment: co-sedimentation; BG-549-labelled HK349 with MTs; x2 MA buffer, 1 mg/ml casein, 40 uM taxol, 1 U/ml apyrase (nucleotide-free state); details: both partners purified
T1 construct: human beta3-tubulin TUBB3 with the synthetic mutation R262A; also called R262A MTs; β-R262A MT; source: HighFive insect cells (baculovirus), purified (DEAE Sepharose, TALON, anti-FLAG resin), polymerized with taxol; not shown: FLAG (DYKDDDDK)
T1 sequence (P68363 whole entry K40R, chain 1 of 2): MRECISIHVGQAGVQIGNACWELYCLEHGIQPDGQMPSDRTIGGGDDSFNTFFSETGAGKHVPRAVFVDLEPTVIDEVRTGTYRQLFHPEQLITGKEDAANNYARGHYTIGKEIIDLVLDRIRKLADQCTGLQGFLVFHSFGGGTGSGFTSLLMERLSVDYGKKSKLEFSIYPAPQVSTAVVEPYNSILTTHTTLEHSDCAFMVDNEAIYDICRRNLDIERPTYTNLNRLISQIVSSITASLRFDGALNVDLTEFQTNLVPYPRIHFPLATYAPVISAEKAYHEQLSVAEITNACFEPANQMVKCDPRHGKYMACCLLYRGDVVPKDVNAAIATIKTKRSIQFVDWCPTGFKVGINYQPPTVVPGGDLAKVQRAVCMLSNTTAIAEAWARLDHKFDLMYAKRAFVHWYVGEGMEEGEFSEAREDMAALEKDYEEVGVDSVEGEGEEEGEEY
T1 sequence (Q13509 whole entry R262A, chain 2 of 2): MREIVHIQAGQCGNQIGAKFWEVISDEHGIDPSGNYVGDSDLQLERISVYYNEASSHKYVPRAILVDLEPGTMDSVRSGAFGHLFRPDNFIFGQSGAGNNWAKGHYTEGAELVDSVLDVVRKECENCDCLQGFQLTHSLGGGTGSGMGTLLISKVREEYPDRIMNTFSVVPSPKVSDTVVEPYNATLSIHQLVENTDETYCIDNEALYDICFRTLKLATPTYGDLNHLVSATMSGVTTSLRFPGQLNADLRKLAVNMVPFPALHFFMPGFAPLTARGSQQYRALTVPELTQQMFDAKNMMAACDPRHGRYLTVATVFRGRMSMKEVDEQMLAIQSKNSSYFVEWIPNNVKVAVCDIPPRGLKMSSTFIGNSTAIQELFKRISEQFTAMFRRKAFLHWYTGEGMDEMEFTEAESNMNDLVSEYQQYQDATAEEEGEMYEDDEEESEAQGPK

[2] = biological target: T1, microtubules of recombinant human …; experiment: co-sedimentation; BG-549-labelled HK349 with MTs; x2 MA buffer, 1 mg/ml casein, 40 uM taxol, 1 mM ADP and 1 U/ml hexokinase (ADP state); details: both partners purified
[3] = biological target: T1, microtubules of recombinant human …; experiment: co-sedimentation; BG-549-labelled HK349 with MTs; x2 MA buffer, 1 mg/ml casein, 40 uM taxol, 1 mM AMPPNP and 1 U/ml apyrase (AMPPNP state); details: both partners purified
[4] = biological target: T2, microtubules of recombinant human TUBA1B/TUBB3 tubulin, wild type (human, UniProt P68363-1 1-451; Q13509-1 1-450, K40R); experiment: single-molecule motility assay (total internal reflection fluorescence microscopy); MTs immobilised on PEG-coated glass via streptavidin and biotinylated nonmotile kinesin HK340-E236A; BG-549-labelled HK432 at 0.4 nM; x2 MA buffer pH 6.8, 1 mM ATP, 1 mg/ml casein, 10 uM taxol, 25 °C; details: both partners purified
T2 construct: Polymer of alpha/beta heterodimers stabilised with taxol; also called WT MTs; WT MT; source: HighFive insect cells (baculovirus), purified (DEAE Sepharose, TALON, anti-FLAG resin), polymerized with taxol; not shown: FLAG (DYKDDDDK)
T2 sequence (P68363 whole entry K40R, chain 1 of 2): as the sequence (P68363 whole entry K40R, chain 1 of 2) above
T2 sequence (Q13509 whole entry, chain 2 of 2): as the sequence (Q13509 whole entry R262A, chain 2 of 2) above, with A262R counted along it

[5] = biological target: microtubules of recombinant human TUBA1B/TUBB3 tubulin with TUBB3 R262A (human) (UniProt P68363)
Chain of microtubules of recombinant human TUBA1B/TUBB3 tubulin with TUBB3 R262A (human) (P68363 whole entry K40R, chain 1 of 2): as the sequence (P68363 whole entry K40R, chain 1 of 2) above
Chain of microtubules of recombinant human TUBA1B/TUBB3 tubulin with TUBB3 R262A (human) (Q13509 whole entry R262A, chain 2 of 2, further chain): as the sequence (Q13509 whole entry R262A, chain 2 of 2) above

[6] = biological target: microtubules of recombinant human TUBA1B/TUBB3 tubulin with TUBB3 R262H (human) (UniProt P68363)
Chain of microtubules of recombinant human TUBA1B/TUBB3 tubulin with TUBB3 R262H (human) (P68363 whole entry K40R, chain 1 of 2): as the sequence (P68363 whole entry K40R, chain 1 of 2) above
Chain of microtubules of recombinant human TUBA1B/TUBB3 tubulin with TUBB3 R262H (human) (Q13509 whole entry R262H, chain 2 of 2, further chain): as the sequence (Q13509 whole entry R262A, chain 2 of 2) above, with A262H counted along it

[7] = biological target: T1, microtubules of recombinant human …; experiment: single-molecule motility assay (total internal reflection fluorescence microscopy); MTs immobilised on PEG-coated glass via streptavidin and biotinylated nonmotile kinesin HK340-E236A; BG-549-labelled HK432 at 0.4 nM; x2 MA buffer pH 6.8, 1 mM ATP, 1 mg/ml casein, 10 uM taxol, 25 °C; details: both partners purified

Binder	fold increase in Kd against the WT–WT pair [1] [fold]	fold increase in Kd against the WT–WT pair [2] [fold]	binding result [4]	further results
B1	10	2		
B2	~70	~6		fold increase in Kd against the WT–WT pair [3]: ~90 fold
B3			binds	MT-activated kinesin ATPase, apparent Michaelis–Menten constant K0.5MT as multiple of that with WT MTs [5]: 10 times of WT; MT-activated kinesin ATPase, kcat as percent of that with WT MTs [5]: 23 % of WT; MT-activated kinesin ATPase, apparent Michaelis–Menten constant K0.5MT as multiple of that with WT MTs [6]: 9.7 times of WT; MT-activated kinesin ATPase, kcat as percent of that with WT MTs [6]: 17 % of WT
B4			binds	binding frequency, fold of that of WT KIF5B to WT MT [7]: 2 fold
B5			binds	
